Results published in paper PMC4933879.
Values joined by “and” are separate entries in the source; they are usually repeats but may differ in a detail not shown here. Identical values can stand only once.

Columns and labels:
[1] = target: TM-3 1-149; test: SPR; Proteon XPR36; DARPins immobilised through their N-terminal His-tag on Ni2+-activated tris-NTA (HTG) sensor chip, tubulin injected at five concentrations; 20 °C; buffer of the fluorescence experiments with 20 μM EGTA and 0.005% Tween 20; Langmuir fit; for D1 also KD from the plateau values
[2] = target: DARPin D1; test: as above
[3] = target: acrylodan-labeled TM-3 variant (Q26C mutant); test: fluorescence kinetics (stopped-flow and spectrofluorometer); koff: chase of acrylodan-labeled DARPin from tubulin by excess unlabeled DARPin (stopped-flow for D1, spectrofluorometer for high affinity DARPins), mono-exponential fit; kon: at least 5-fold excess of tubulin added to 50 nM labeled DARPin in a stopped-flow system, pseudo-first-order, slope of kobs against tubulin concentration
[4] = target: acrylodan-labeled D1 (Q26C mutant); test: as above
[5] = target: subtilisin-digested acrylodan-labeled TM-3 (C-cap-truncated TM-3); test: as above
[6] = target: acrylodan-labeled A-C2 (Q26C mutant); test: as above
[7] = target: acrylodan-labeled TM-3 variant (Q26C mutant); test: other fluorescence titration; fixed acrylodan-labeled DARPin (100 nM D1 or 15 nM high affinity DARPins) titrated with tubulin; 20 mM K-phosphate pH 7.2, 100 mM KCl, 1 mM MgCl2, 0.5 mM EGTA, 10 μM GDP, 20 °C; 1:1 quadratic fit
[8] = target: acrylodan-labeled D1 (Q26C mutant); test: as above
[9] = target: subtilisin-digested acrylodan-labeled TM-3 (C-cap-truncated TM-3); test: as above
[10] = target: acrylodan-labeled A-C2 (Q26C mutant); test: as above

Sequence of TM-3 1-149 (main, as listed by the source): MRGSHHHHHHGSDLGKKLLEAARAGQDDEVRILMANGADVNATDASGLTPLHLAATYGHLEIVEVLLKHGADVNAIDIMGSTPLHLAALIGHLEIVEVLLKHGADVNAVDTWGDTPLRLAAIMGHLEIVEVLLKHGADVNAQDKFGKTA
Sequence of DARPin D1 (main, as listed by the source): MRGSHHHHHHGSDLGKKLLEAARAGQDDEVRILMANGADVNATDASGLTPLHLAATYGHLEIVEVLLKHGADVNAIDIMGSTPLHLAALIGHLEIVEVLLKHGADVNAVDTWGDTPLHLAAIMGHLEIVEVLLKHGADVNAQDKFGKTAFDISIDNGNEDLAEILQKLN

αβ tubulin heterodimer (tubulin) (complex)
Kd [1]: 1.6 nM | koff [1]: 0.0027 s⁻¹ | kon [1]: 1.7e+06 M⁻¹ s⁻¹ | Kd [2]: 300 nM and 275 nM | koff [2]: 0.22 s⁻¹ | kon [2]: 800000 M⁻¹ s⁻¹ | Kd [3]: 0.269 nM | koff [3]: 0.0049 s⁻¹ | kon [3]: 1.82e+07 M⁻¹ s⁻¹ | Kd [4]: 115 nM | koff [4]: 1.49 s⁻¹ | kon [4]: 1.3e+07 M⁻¹ s⁻¹ | Kd [5]: 0.172 nM | koff [5]: 0.0046 s⁻¹ | kon [5]: 2.67e+07 M⁻¹ s⁻¹ | Kd [6]: 0.444 nM | koff [6]: 0.0071 s⁻¹ | kon [6]: 1.6e+07 M⁻¹ s⁻¹ | Kd [7]: 0.9 nM | Kd [8]: 127 nM | Kd [9]: 1.03 nM | Kd [10]: 0.82 nM
